Reference: publication doi:10.1101/460097
Blank lines part the entries; values can stand above or below the substance they belong to.

Assays:
[1] = biological target: mouse (Mus musculus) PCDH15 EC10-MAD12 produced in mammalian cells (mouse (Mus musculus)); test: SEC-MALS
[2] = biological target: mouse (Mus musculus) PCDH15 EC10-MAD12 produced in mammalian cells (mouse (Mus musculus)); test: AUC
[3] = biological target: mouse (Mus musculus) PCDH15 EC10-MAD12, refolded from bacteria (mouse (Mus musculus)); test: SEC-MALS
[4] = biological target: mouse (Mus musculus) PCDH15 EC10-MAD12, refolded from bacteria (mouse (Mus musculus)); test: SEC-SAXS
[5] = biological target: pig (Sus scrofa) PCDH15 EC10-MAD12 (pig (Sus scrofa)); test: SEC-MALS
[6] = biological target: pig (Sus scrofa) PCDH15 EC10-MAD12 (pig (Sus scrofa)); test: AUC
[7] = biological target: pig (Sus scrofa) PCDH15 EC10-MAD12 (pig (Sus scrofa)); test: SEC-SAXS

stoichiometry N [1]: 2
stoichiometry N [2]: 2
Substance: mouse (Mus musculus) PCDH15 EC10-MAD12 produced in mammalian cells (domain or fragment)

Substance: mouse (Mus musculus) PCDH15 EC10-MAD12, refolded from bacteria (domain or fragment)
stoichiometry N [3]: 2
stoichiometry N [4]: 2

stoichiometry N [5]: 2
stoichiometry N [6]: 2
stoichiometry N [7]: 2
Substance: pig (Sus scrofa) PCDH15 EC10-MAD12 (domain or fragment)
